Assay results published in doi:10.1101/684738.

Molecular target: E. coli RNAP core enzyme (E. coli)
Test: single-molecule fluorescence colocalisation

percent of Cy3-RNA signal colocalized with Cy5 on σ^70: 35%
percent of initially-stalled transcription complexes retaining σ: 75%
Substance: Cy5-labeled E. coli σ^70 factor (from UniProt P00579 1-613) (natural protein)
